Results reported in the DeepSol protein solubility set.

Test: soluble on expression in E. coli; label from the status in PepcDB or PDB records

Sequence | soluble on expression in E. coli
MSTTGSAPPNSKLKSVEDTDDDRTLAEDDQNDQNSGSMDHRFERIKVTLMMTQGKKFGLGIVSVHQRILVCKVENESLVAGVLKYGDQIIEINKKNVLNKIDCKKRLMQCLKDKGQVDIIIVRPKTADAVTMIEQEIQLSQQPSTTAQPKIN | not soluble
MDLFIKKRIKAIQKGDQNAYADLVDLYKDKIYRLCYRMLGNRHEAEDAAQEAFIRAYIHIDTYNPEMKFSTWLYRIATNLTIDKLRKRKPDVYLDEEVGGTDGLTMQAQLPSREASPEEAVESLELQETVQRAIEQLPEKYRSVIVLKYMEDLSLQEISEILGLPVGTVKTRLHRGREALRRQLGHL | not soluble
VPDKSPDLLFELLNDFFTQLLSAGESESMDNLIELDLTFSQVRMLFALVQHGEPLPINEVAERLRLSVAAAGRNVDQLVKLGLVVRREDERDRRVKRVSLSEAGHKVATQHIECKRDQLRRFAWRVPEIERTRLIEALQPILAGESLRELNQEILG | not soluble
MPFPVTTQGSQQTQPPQKHYGITSPISLAAPKETDCLLTQKLVETLKPFGVFEEEEELQRRILILGKLNNLVKEWIREISESKNLPQSVIENVGGKIFTFGSYRLGVHTKGADIDALCVAPRHVDRSDFFTSFYDKLKLQEEVKDLRAVEEAFVPVIKLCFDGIEIDILFARLALQTIPEDLDLRDDSLLKNLDIRCIRSLNGCRVTDEILHLVPNIDNFRLTLRAIKLWAKRHNIYSNILGFLGGVSWAMLVARTCQLYPNAIASTLVHKFFLVFSKWEWPNPVLLKQPEECNLNLPVWDPRVNPSDRYHLMPIITPAYPQQNSTYNVSVSTRMVMVEEFKQGLAITDEILLSKAEWSKLFEAPNFFQKYKHYIVLLASAPTEKQRLEWVGLVESKIRILVGSLEKNEFITLAHVNPQSFPAPKENPDKEEFRTMWVIGLVFKKTENSENLSVDLTYDIQSFTDTVYRQAINSKMFEVDMKIAAMHVKRKQLHQLLPSHVLQKKKKHSTEGV | soluble
MGSDKIHHHHHHMLSRTASELFWMARYLERAESYARVLDVTWKLSMIPRHSQQSRDLALPLNLSMTHELFQARHARFTMSNLLNFFALDGNNPCSIYSCVEMAWNNAHAVRGSLSAEVWESINATRIELRTLRQQGLGELGSDGFFEWVKERVHLFRGAVIGTLLRNDALSFIGIGTLIERAFATTQLLLIKDQQLTNDPDPVREYYRLDTLLNAVSAREAYNSLYRQPVSRETVMELLILRNDIPRSLRASIADLVGELEKIANDRSYQPLRLAHQLNVDLRFSTRDDLAQADLQTTLNGLLARINALSDSIRQTYLEAL | not soluble
MDVPTAISIERVVKEMKSLEITLHITPTGPSVGFANINGFNFQFIVLPSVLIARADRYLSETKSDPRIYLASNEVNNRTVRGGIFVVDNSAAPIMRAEVDICSAAGLTDSQLHMCLSNSVNDVLDLQHSWAKATAI | not soluble
GSHMVGPTYSTAVLNCLKNLDLWCFDVFSLNQAADDHALRTIVFELLTRHNLISRFKIPTVFLMSFLDALETGYGKYKNPYHNQIHAADVTQTVHCFLLRTGMVHCLSEIELLAIIFAAAIHDYEHTGTTNSFHIQTKSECAIVYNDRSVLENHHISSVFRLMQDDEMNIFINLTKDEFVELRALVIEMVLATDMSCHFQQVKTMKTALQQLERIDKPKALSLLLHAADISHPTKQWLVHSRWTKALMEEFFRQGDKEAELGLPFSPLCDRTSTLVAQSQIGFIDFIVEPTFSVLTDVAEKSVQPLADEDSKSKNQPSFQWRQPSLDVEVGDPNPDVVSFRSTWVKRIQENKQKWKERAASGITN | soluble
MGSDKIHHHHHHMYKRNERLNLIRKRVDQYGQVAVKDLAIFLQVTPETVRKDLETLENDKLITRTHGGAIQYNHINKEKSYANKWQKQSQVKERIAKKAALQIKSGEIIVIDGGTTTGRIPQYLNDITQTTIVTNSLKIADELNRAIEEQRIQAEVIMLAGKTNTEQDVVRGHMTNELLQRFKFDKAFISCGSFDTSDCYEFDLEEAHASHIMIQKSQLSYLLADSSKRDAHASYRIDGFSEIDYMISDYAKPQNIEYFNQKHWLQI | not soluble
MGSDKIHHHHHHMTNSIMALPSSIRHYRRKQMAINQVAQTPAISPLTIKERTGSISTAEMISVLKGETTALHIKQAFSTEVAEEITTNFLGSPGLKERKDGVPGQYVGASHYRKDAATYFAESETARPHVDALFENLVDPVRGSFDALKRELHKQGIELRLARSEHGHANVCRALSWSGSGTFSLDPHDDVAQVLSAGNDYELSAVAHNTVAALNFYPSMPEEGGNLRLWSHKPTVADRKSQGVETTGYPYSSAYLEAVPCREFQLKPGDIALIDGGFVHGVTGQSGNGKRRLVLNSFFGFARPDLVLWWT | not soluble
MKFKAVFISDTHLGTKDSKASLLLEFIKEIETKELYLVGDIIDGWSLKRKWIWLQPHSDVIQKILKAARKGVRVTYILGNHDEFIRPFLPLALGDHIRVVDEATYKAKNKKRYKIVHGDLYDSITMTKKWLAILGDNGYQFLLRLNDPINTLRQRLGFRRYWSFSQFIKDHVKQAVAYISDFEKILVAHAREEKFDGIICGHIHKAEIRDIEGITYMNCGDWVESCTALVETLEGEFKIIRWLDER | not soluble
MDQVVVFQKMFEQVRKEQNFSWFYSELKHHRIAHYIYYLATDNIRIITHDDTVLLLRGTRNLLKVSTTKNPAKIKEAALLHICGKSTFREYCSTLAGAGVFRWVTDVNHNKRSYYAIDNTLLYIEDVENNKPLI | not soluble
MTDHLRGFYKAEFETARKKAHGVIFLHDGKIQGGDSTFLYSGAYSQSGLTVAGNLRGVRYSSDHSRLSVFGIEPFEITFDGVAKDGYVTIEGYAHETPSLPLKAILTRVDD | not soluble
MSLKKVVIIGGGAAGMSAASRVKRLKPEWDVKVFEATEWVSHAPCGIPYVVEGLSTPDKLMYYPPEVFIKKRGIDLHLNAEVIEVDTGYVRVRENGGEKSYEWDYLVFANGASPQVPAIEGVNLKGVFTADLPPDALAIREYMEKYKVENVVIIGGGYIGIEMAEAFAAQGKNVTMIVRGERVLRRSFDKEVTDILEEKLKKHVNLRLQEITMKIEGEERVEKVVTDAGEYKAELVILATGIKPNIELAKQLGVRIGETGAIWTNEKMQTSVENVYAAGDVAETRHVITGRRVWVPLAPAGNKMGYVAGSNIAGKELHFPGVLGTAVTKFMDVEIGKTGLTEMEALKEGYDVRTAFIKASTRPHYYPGGREIWLKGVVDNETNRLLGVQVVGSDILPRIDTAAAMLMAGFTTKDAFFTDLAYAPPFAPVWDPLIVLARVLKEGHHHHHH | soluble
MGSDKIHHHHHHADKHDHKGQTPLVEVDGNFLYKEDLQAVLPAGLSKDDSLLFAEHYVRSWVEDVLLFNQAQSNIPDNGEIDKLVENYRKALIMHTYQQELISQKLSGEIPEQEIADYYEKNKELFKLDRPLMKGLFIKVPLTAPQLGNVRKWYKTETQDAVEHLEKYSLQNAVKYEYFYDKWVRVADVLDMIPLKAESPEAYMDKNRHIELKDTAFYYFLNISDFRVAGEQEPYEFAQPKVKDMLVNIKRVDFMKQVKDDLYERAVKRKKIINY | not soluble
AFSFAAEHGLELDKVDIDLTDKAAMQDGARTFANYCMGCHSAKFQRYERVADDLGIPHELMLEKLVFTGAKIGDHMQIGMKPSDAKTWFGAAPPDLTLVARVRGTDWLYTYLRSFYEDPSRPYGVNNKVFPNVGMPNVLVGLQGNQVVGCKQVQTVVDGKKQFDPLTGSPLTHEACDQLTITPNSGTLTAEQFDEKVKNLVTFLAYSANP | not soluble
MKNLERLFAEKLLKIKAIKLQPANPFTWASGWKSPFYCDNRKTLSYPSLRNFVKIEITRLILERFGQVDAIAGVATGAIPQGALVADALNLPFVYVRSTPKDHGLENLIEGELRPGMKVVVVEDLISTGGSSLKAVEAIRRDGCEVIGMVAAYTYGFPVAEEAFKNAKVPLVTLTNYEAVLDVALRTGYIEEEDIATLNDWRKDPAHWDAGK | soluble
MGSDKIHHHHHHMKILMLCREPRLYSCQRLKQACQDRNIQLDILDPNRMLIKLAVIDAQMQAQLYYQAGEIYDKCRAEPSLLAEYDAVLPRFGVSSTMMGCRVLDYFAAKKVVILNNSTAFRLARDKWSSLQVLAAQHIPIPTSSFAGALFSTAAHISQHRIPLVIKTCSGSQGVGVMLSESKVHSVSLLQTLQQAKVDNLLQDFVVEARGQDIRAFVIGDRVVAAIERNGLENDFRANIHQGGSASVIQLNTAEQQLAVLAAKTIGLDVAGVDLIRSNKGLLVLEVNACPGLDGIEKASKLDIAGLIIDYLLAMKK | not soluble
MKFLTTNFLKCSVKACDTSNDNFPLQYDGSKCQLVQDESIEFNPEFLLNIVDRVDWPAVLTVAAELGNNALPPTKPSFPSSIQELTDDDMAILNDLHTLLLQTSIAEGEMKCRNCGHIYYIKNGIPNLLLPPHLV | not soluble
MAKELAEKAKEAFLDDDFDVAVDLYSKAIDLDPNCAAFFADRAQANIKIDNFTEAVVDANKAIELEPTLAKAYLRKGTACMKLEEYSTAKAALEKGASVAPNEPKFKKMIDECDLRIAEEEKDLVQPMPPSLPSSSTTPLATEADAPPVPIPAAPAKPMFRHEFYQKPEEAVVTIFAKKVPKENVTVEFGEQILSVVIDVAGEEAYHLQPRLFGKIIPEKCRFEVLSTKVEIRLAKAEIITWASLEYGKGQSVLPKPNVSSALSQRPVYPSSKPAKDWDKLEAEVKKQEKDEKLDGDAAMNKFFSDIYSSADEDMRRAMNKSFAESNGTVLSTNWKEVGTKKVESTPPDGMELKKWEY | not soluble
MRLWVLTLVQAHFAILAVADTTVAVEETTKAANETTTPDGPHADCFLCAPTVQCGETVEGDYSSGEVNVLLMKPMEDNDYFIVKGEVFPNAMKIFIDIYKDLSVGKAQEGGNNQPRLLTFEHYFDTNLTFSRSNLHGEGVPDSFREATLPDAIKQKKPWTLMFKMKDGLSAFETGDETGWFNNDIPWNGTATTQSFNIRGGWKTTSIQ | not soluble
MARFNAAFTRIKIMFSRIRGLISCQSNTQTIAPTLSPPSSGHVSFAGIDYPLLPLNHQTPLVFQWFERNPDRFGQNEIPIINTQKNPYLNNIINAAIIEKERIIGIFVDGDFSKGQRKALGKLEQNYRNIKVIYNSDLNYSMYDKKLTTIYLENITKLEAQSASERDEVLLNGVKKSLEDVLKNNPEETLISSHNKDKGHLWFDFYRNLFLLKGSDAFLEAGKPGCHHLQPGGGCIYLDADMLLTDKLGTLYLPDGIAIHVSRKDNHVSLENGIIAVNRSEHPALIKGLEIMHSKPYGDPYNDWLSKGLRHYFDGSHIQDYDAFCDFIEFKHENIIMNTSSLTASSWR | not soluble
KGIFSWESALTATYNKNEILDLNSETPMFINQIGNSYVTMLKAGYPINVFYGYVTDGLFQNWGEVNRHATQPGAAPGDIRFRDLNNDGVINDEDRTILGNPNPNWFFSLSNNLSYKGWELSVFLQGVAGNKIYNANNVDNEGMAAAYNQTTAVLNRWTGEGTSYSMPRAIWGDPNQNCRVSDRFVENGSYLRLKNITLSYTLPKKWLQKIQLENARISFSCENVATITRYSGFDPEVDVNGIDSSRYPISRTFSMGLNFNF | not soluble
MPIEIITDSGADLPQSYIREHRIAFLPLVVHWNGQDYKDGITIEPKQVYDAMRQGHTVKTAQPSPLAMKELFLPYAKENRPCLYIAFSSKLSGTYQTAMAVRSELLDEYPEFRLTIIDSKCASLGQGLAVMKAVELAKQNTPYNLLCETIESYCRHMEHIFTVDNLDYLARGGRISKTAAAFGGLLNIKPLLHVEDGALIPLEKWRGRKKVLKRMVELMGERGDDLQKQTIGISHADDEETALELKQMIEETHGCTRFFLSDIGSAIGAHAGPGTIALFFLNKYIEI | soluble
